# Measured values taken from patent US20150322129A1 (Sanofi, published 2015).
# Where two headings read alike, the source gives them in different places. Numbered stars: 1 amine (or outer) side, 2 acyl side, 3 side chain; on linkers, the order of the positions; unused ones are H or OH. Square brackets hold non-standard residues; d marks the D form. Side chains are listed from the residue outwards. Ends that are not written are not given here. * marks the point of attachment. γGlu = O=C(O)[C@H](CCC(=O)[*:2])N[*:1]; Stearoyl = CCCCCCCCCCCCCCCCCC(=O)*; Palmitoyl = CCCCCCCCCCCCCCCC(=O)*; AEEA = NCCOCCOCC(=O)O; Aib = CC(C)(N)C(=O)O
# T1: human GIP receptor (human, UniProt P48546 22-466)
# T1 sequence (looked up): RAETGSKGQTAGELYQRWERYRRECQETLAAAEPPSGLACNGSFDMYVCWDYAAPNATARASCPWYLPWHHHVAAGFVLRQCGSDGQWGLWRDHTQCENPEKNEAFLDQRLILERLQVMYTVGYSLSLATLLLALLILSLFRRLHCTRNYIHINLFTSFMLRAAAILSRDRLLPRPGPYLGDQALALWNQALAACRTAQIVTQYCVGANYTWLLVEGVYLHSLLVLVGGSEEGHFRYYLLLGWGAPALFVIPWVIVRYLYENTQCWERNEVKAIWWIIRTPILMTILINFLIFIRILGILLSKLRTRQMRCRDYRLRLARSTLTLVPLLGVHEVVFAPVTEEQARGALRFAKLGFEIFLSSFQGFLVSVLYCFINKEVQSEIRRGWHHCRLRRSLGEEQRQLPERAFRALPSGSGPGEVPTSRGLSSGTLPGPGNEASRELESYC
# B1: SEQ ID NO: 19 (peptide)
# peptide: H[dS]QGTFTSDLSKQK([γGlu-Stearoyl])DEEAVRLFIEWLKAGGPSSGAPPPS-NH2
# modifications: N-terminus assumed
# SMILES: CCCCCCCCCCCCCCCCCC(=O)N[C@@H](CCC(=O)NCCCC[C@H](NC(=O)[C@H](CCC(N)=O)NC(=O)[C@H](CCCCN)NC(=O)[C@H](CO)NC(=O)[C@H](CC(C)C)NC(=O)[C@H](CC(=O)O)NC(=O)[C@H](CO)NC(=O)[C@@H](NC(=O)[C@H](Cc1ccccc1)NC(=O)[C@@H](NC(=O)CNC(=O)[C@H](CCC(N)=O)NC(=O)[C@@H](CO)NC(=O)[C@@H](N)Cc1c[nH]cn1)[C@@H](C)O)[C@@H](C)O)C(=O)N[C@@H](CC(=O)O)C(=O)N[C@@H](CCC(=O)O)C(=O)N[C@@H](CCC(=O)O)C(=O)N[C@@H](C)C(=O)N[C@H](C(=O)N[C@@H](CCCNC(=N)N)C(=O)N[C@@H](CC(C)C)C(=O)N[C@@H](Cc1ccccc1)C(=O)N[C@H](C(=O)N[C@@H](CCC(=O)O)C(=O)N[C@@H](Cc1c[nH]c2ccccc12)C(=O)N[C@@H](CC(C)C)C(=O)N[C@@H](CCCCN)C(=O)N[C@@H](C)C(=O)NCC(=O)NCC(=O)N1CCC[C@H]1C(=O)N[C@@H](CO)C(=O)N[C@@H](CO)C(=O)NCC(=O)N[C@@H](C)C(=O)N1CCC[C@H]1C(=O)N1CCC[C@H]1C(=O)N1CCC[C@H]1C(=O)N[C@@H](CO)C(N)=O)[C@@H](C)CC)C(C)C)C(=O)O
# B2: SEQ ID NO: 21 (peptide)
# peptide: H-H[dS]HGTFTSDLSKQK([γGlu-γGlu-Palmitoyl])DEEAVRLFIEWLKAGGPSSGAPPPS-NH2
# SMILES: CCCCCCCCCCCCCCCC(=O)N[C@@H](CCC(=O)N[C@@H](CCC(=O)NCCCC[C@H](NC(=O)[C@H](CCC(N)=O)NC(=O)[C@H](CCCCN)NC(=O)[C@H](CO)NC(=O)[C@H](CC(C)C)NC(=O)[C@H](CC(=O)O)NC(=O)[C@H](CO)NC(=O)[C@@H](NC(=O)[C@H](Cc1ccccc1)NC(=O)[C@@H](NC(=O)CNC(=O)[C@H](Cc1c[nH]cn1)NC(=O)[C@@H](CO)NC(=O)[C@@H](N)Cc1c[nH]cn1)[C@@H](C)O)[C@@H](C)O)C(=O)N[C@@H](CC(=O)O)C(=O)N[C@@H](CCC(=O)O)C(=O)N[C@@H](CCC(=O)O)C(=O)N[C@@H](C)C(=O)N[C@H](C(=O)N[C@@H](CCCNC(=N)N)C(=O)N[C@@H](CC(C)C)C(=O)N[C@@H](Cc1ccccc1)C(=O)N[C@H](C(=O)N[C@@H](CCC(=O)O)C(=O)N[C@@H](Cc1c[nH]c2ccccc12)C(=O)N[C@@H](CC(C)C)C(=O)N[C@@H](CCCCN)C(=O)N[C@@H](C)C(=O)NCC(=O)NCC(=O)N1CCC[C@H]1C(=O)N[C@@H](CO)C(=O)N[C@@H](CO)C(=O)NCC(=O)N[C@@H](C)C(=O)N1CCC[C@H]1C(=O)N1CCC[C@H]1C(=O)N1CCC[C@H]1C(=O)N[C@@H](CO)C(N)=O)[C@@H](C)CC)C(C)C)C(=O)O)C(=O)O
# B3: SEQ ID NO: 23 (peptide)
# peptide: H-H[dS]QGTFTSDLSKQK([γGlu-γGlu-Palmitoyl])DEEAVRLFIEWLKAGGPSSGAPPPS-NH2
# SMILES: CCCCCCCCCCCCCCCC(=O)N[C@@H](CCC(=O)N[C@@H](CCC(=O)NCCCC[C@H](NC(=O)[C@H](CCC(N)=O)NC(=O)[C@H](CCCCN)NC(=O)[C@H](CO)NC(=O)[C@H](CC(C)C)NC(=O)[C@H](CC(=O)O)NC(=O)[C@H](CO)NC(=O)[C@@H](NC(=O)[C@H](Cc1ccccc1)NC(=O)[C@@H](NC(=O)CNC(=O)[C@H](CCC(N)=O)NC(=O)[C@@H](CO)NC(=O)[C@@H](N)Cc1c[nH]cn1)[C@@H](C)O)[C@@H](C)O)C(=O)N[C@@H](CC(=O)O)C(=O)N[C@@H](CCC(=O)O)C(=O)N[C@@H](CCC(=O)O)C(=O)N[C@@H](C)C(=O)N[C@H](C(=O)N[C@@H](CCCNC(=N)N)C(=O)N[C@@H](CC(C)C)C(=O)N[C@@H](Cc1ccccc1)C(=O)N[C@H](C(=O)N[C@@H](CCC(=O)O)C(=O)N[C@@H](Cc1c[nH]c2ccccc12)C(=O)N[C@@H](CC(C)C)C(=O)N[C@@H](CCCCN)C(=O)N[C@@H](C)C(=O)NCC(=O)NCC(=O)N1CCC[C@H]1C(=O)N[C@@H](CO)C(=O)N[C@@H](CO)C(=O)NCC(=O)N[C@@H](C)C(=O)N1CCC[C@H]1C(=O)N1CCC[C@H]1C(=O)N1CCC[C@H]1C(=O)N[C@@H](CO)C(N)=O)[C@@H](C)CC)C(C)C)C(=O)O)C(=O)O
# Assays:
# Assay in all cases: cell-based or functional assay
# human GIP receptor [1] = biological target: T1, human GIP receptor
# human GLP-1 receptor [2] = biological target: T2, human GLP-1 receptor (human, UniProt P43220 24-463)
# human glucagon receptor [3] = biological target: T3, human glucagon receptor (human, UniProt P47871 26-477)
# T3 sequence (P47871 26-477): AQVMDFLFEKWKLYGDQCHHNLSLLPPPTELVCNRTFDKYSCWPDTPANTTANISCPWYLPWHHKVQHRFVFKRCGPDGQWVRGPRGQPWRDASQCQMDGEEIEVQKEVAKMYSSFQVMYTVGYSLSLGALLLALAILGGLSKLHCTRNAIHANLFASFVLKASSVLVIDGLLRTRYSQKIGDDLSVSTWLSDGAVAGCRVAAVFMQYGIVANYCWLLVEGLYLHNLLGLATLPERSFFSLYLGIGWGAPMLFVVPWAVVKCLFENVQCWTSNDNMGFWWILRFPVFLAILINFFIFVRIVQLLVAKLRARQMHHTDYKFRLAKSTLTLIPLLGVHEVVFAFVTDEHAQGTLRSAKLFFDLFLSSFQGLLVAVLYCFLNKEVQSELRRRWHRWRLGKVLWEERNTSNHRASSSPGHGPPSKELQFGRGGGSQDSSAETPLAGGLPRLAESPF
# human GIP receptor [4] = biological target: T1, human GIP receptor; remark: listed apart in the source
# human glucagon receptor [5] = biological target: T3, human glucagon receptor; remark: listed apart in the source
# human GLP-1 receptor [6] = biological target: T2, human GLP-1 receptor; remark: listed apart in the source
Binder,EC50 hGIP-1 (cAMP formation) (human GIP receptor [1]),EC50 hGLP-1R (cAMP formation) (human GLP-1 receptor [2]),EC50 hGlucagon-R (cAMP formation) (human glucagon receptor [3]),EC50 hGIP-R (cAMP formation) (human GIP receptor [4]),EC50 hGlucagon-R (cAMP formation) (human glucagon receptor [5]),EC50 hGLP-1R (cAMP formation) (human GLP-1 receptor [6])
H[dS]HGTFTSDLSKQK(Ac)EEEAVRLFIEWLKAGGPSSGAPPPS-NH2 [SEQ ID NO: 35],4.04 nM,0.0004 nM,2.86 nM,–,–,–
H[dS]HGTFTSDLSKQK([γGlu-γGlu-Palmitoyl])EEEAVRLFIEWLKAGGPSSGAPPPS-NH2 [SEQ ID NO: 13],0.079 nM,–,0.0225 nM,0.079 nM,0.0225 nM,–
H[dS]HGTFTSDLSKQK([γGlu-Palmitoyl])EEEAVRLFIEWLKAGGPSSGAPPPS-NH2 [SEQ ID NO: 14],0.437 nM,0.0041 nM,0.0584 nM,0.437 nM,0.0584 nM,0.0041 nM
H[Aib]HGTFTSDLSKQK([γGlu-γGlu-Palmitoyl])EEEAVRLFIEWLKAGGPSSGAPPPS-NH2 [SEQ ID NO: 11],0.0079 nM,–,0.0089 nM,0.0079 nM,0.0089 nM,–
B1,–,–,–,0.4 nM,0.129 nM,0.0035 nM
B2,–,–,–,0.0994 nM,0.0859 nM,0.0008 nM
B3,–,–,–,0.35 nM,0.124 nM,0.0012 nM
H-H[Aib]HGTFTSDLSKQK([AEEA-AEEA-γGlu-Stearoyl])EEEAVRLFIEWLKAGGPSSGAPPPS-NH2 [SEQ ID NO: 28],–,–,–,0.017 nM,0.0171 nM,0.0038 nM
H-H[Aib]HGTFTSDLSKQK([AEEA-AEEA-AEEA-Stearoyl])EEEAVRLFIEWLKAGGPSSGAPPPS-NH2 [SEQ ID NO: 29],–,–,–,0.0476 nM,0.0179 nM,0.0047 nM
H-H[Aib]HGTFTSDLSKQK(Ac)EEEAVRLFIEWLKAGGPSSGAPPPS-NH2 [SEQ ID NO: 34],0.0254 nM,0.0007 nM,0.829 nM,–,–,–
